What was measured:
[1] = biological target: T1, SARS-CoV-2 D614G spike on infected cells (SARS-CoV-2, UniProt P0DTC2 14-1273); test: flow cytometry, infected cells, % infected cells bound
T1 construct: whole, on cells

S2hlx-Ex6 = biological target: T2, S2hlx-Ex6; test: ELISA, coated antigen, mAb titrated
T2 construct: backbone grafting design
T2 chain: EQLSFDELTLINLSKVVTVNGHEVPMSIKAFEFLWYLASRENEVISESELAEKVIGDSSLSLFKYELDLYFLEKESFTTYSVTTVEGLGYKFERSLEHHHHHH

[2] = biological target: T1, SARS-CoV-2 D614G spike on infected cells; test: flow cytometry on infected Vero E6 cells

Row | Binder | binding result [2] | further results
1 | DH1498 (antibody, V domains shown) VH: QVQLQESGPGLVKPSETLSLTCAVSGGSVSSDTYYWSWIRQPPGKGLEWIGYIYNSGSTNYNPSLKSRVTISVDTSKSQFSLNLGSVTAADTAVYYCAREGAGTYPPKNDAFDIWGQGTLVTVSS VL: not shown |  | binding result [1]: no binding (tested: 50 µg/mL)
2 | S2P6 mAb (antibody, V domains shown) VH: EVQLVQSGAEVKKPGASVKVSCKASGYTFTSQYMHWVRQAPGQGLEWIGIINPSGVHTSYAQKFQGRVTLTRDTSTSTLYMELSSLRSEDTAVYYCARGSPKGAFDYWGQGTLVTVSS VL: not shown |  | EC50 (read off the curve) (S2hlx-Ex6): ~0.1 µg/mL
3 | DH1501.2 (antibody, V domains shown) VH: EVQLVESGAEVKKPGASVRLSCKASGDTFNNKYVHWVRQAPGQGLEWMGLINPSGSGTAFAQKFQGRVSMTRDTSTRTVYLGLTSLTYEDTAVYYCARMSRAGTFDIWDQGTMVTVSS VL: EIVLTQSPGTLSLSPGDRATLSCRASENVGTSYLAWYQQKPGQAPRLLISGTSSRATGVPDRFSGSGSGRDFTLTISRLEPEDFAVYYCQQYGSSPPRYTFGQGTKLDMK | binds | 
4 | DH1501.1 (antibody, V domains shown) VH: EVQLVESGAEVKKPGASVRVSCKASGFTFTDHYMHWVRQAPGQGLEWMGLINPTGVNTFYAQNFRGRVTMTRDTSTKTDYLEVRSLTSQDTAMYYCARMSRYGAFDIWGQGTMVTVSL VL: EIVLTQSPGTLSLSPGERATLSCRASQSVGSGYLAWYQQKPGQAPRLLIYGASVRATGIPDRFSGSGSGTDFSLTINRVEPEDFAMYYCQNYGSSPPRYTFGQGTKLEIK | binds | 

From patent US20240285753A1 (DUKE UNIVERSITY, published 2024)
